For 1 molecule, OD 450 nm on (h)BAFF-R-expressing cells results are on record in patent publication US20200190204A1.

The target of the test is hBAFF-R-GFP fusion protein on mouse fibroblast L cells (clone D2C) (human) (UniProt Q96RJ3). Kind of test: cell ELISA of hybridoma supernatant, anti-mouse IgG-HRP; same clone on parental L cell: 0.102. A general note: ELISA stands for enzyme-linked immunosorbent assay.

B1: mouse mAb Clone 55 (hybridoma) (antibody, V domains shown)
VH: QVTLKESGPGILKPSQTLSLTCSFSGFSLSTSGMGVGWIRQPSGKGLEWLAHIWWDDDKYYNSSLKSHLTISKDTSRNQVFLKITSVDTADTATYYCARSFGYGLDYWGQGTTLTVSS
VL: DIQMTQTTSSLSASLGDRVTISCSASQDISNYLNWYQQKPDGTVKLLIYYTSSLHSGVPSRFSGSGSGTDYSLTISSLEPEDIATYYCHQFSELPWTFGGGTKLEIKR
Turning to B1, the OD 450 nm on (h)BAFF-R-expressing cells was determined as 1.07 OD 450 nm.
